The nanobody polyreactivity screen of Harvey et al. (2022)

Assay: yeast display, Sf9 membrane polyspecificity reagent, FACS + sequencing; frameworks hold sequencing errors
Method in brief: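 Nanobodies from a synthetic yeast display library (Saccharomyces cerevisiae BJ5465), induced 36–48 hours with galactose, were stained 1 hour at 4 °C with 10% biotinylated, detergent-solubilized Sf9 membrane reagent, enriched on streptavidin microbeads, then FACS-sorted. Anti-HA (expression) and streptavidin (reagent binding) fluorescence set low and high (top ~1%) gates. Polyreactivity labels come from the gate of origin. Genes were colony-PCR amplified, MiSeq 2 × 250 sequenced and filtered by CDR length.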

Sequence | polyreactivity (PSR sort gate)
QVQLVESGGGLVQAGGSLRLSCAASGSTFSPYAMGWYRHAPGKERELVAAITSGGGSTYYADSVKGRFTISRDNAKNTVYLQMNSLKPEDTAVYYCNAYLYYLGGPYDYWGQGTQVTVSS | high polyreactivity
QVQLGESGGGLVQSGGSLRLSCAASGRIFDLNAMGWYRPAPGKERELVAAISYSDGSTYYADSVKGRFTISRDNEKNTVYLQMNSLKTEDTAVYYCAADFFDRTYITWYEYWGQGTQVTVSS | high polyreactivity
QVQLVESGGGLVQAGGSLRVSCAASGYIFYGNTMGWYRQAPGKEWELVAAISYDGGSTYYADSVKGRFTISRDNAKNTVYLQMNSLKPEDTAVYYCAADTFSFRWSDYWGQGTQVTVSS | low polyreactivity
QVQLVESGGGLVQAGGSLRLSCAASGRTFSVNAMGWYRQAPGKERELVAAISWDGGSTYYADSVKGRFTISRDNAKNTVYLQMNSLKPVDTAVYYCNKDLYYAYDYWGQGTQVTVSS | low polyreactivity
QVQLVESGGGLVQAGGSLRLSCAASGFIFDAYAMGWYRPAPGKEREFVAGISIGGRTNYADSVKGRFTISRDNAKNTVYLQMNSLKPEDSAVYYCAARNYRYYYGSYFRGPITNYEYWGQGTQVTVSS | low polyreactivity
QVQLQESGGGLVQAGGSLRLSCAASGAIFDGFNMGWYRQAPGKEGEFVAAISYGASTDYADSVKGRFTVSRDNAKNSVYLQMNSLKPEDTAVYYCAVYDELYHVLVYWGRGTQVTVSS | low polyreactivity
QVQLVESWGGLVQAGGSLRLSCAASRIIFRWYAMGWYRKAPGTERELVAAITSDGNTYYADSVKGRFTISRDNAKNTVYLQMNSLKPEDTAVYYCAARLSYYCRMNYWGQGTQVNVSS | high polyreactivity
QVQLVESGGGLVQAGGSLRLSCAASGRTFGGYVMGWYIQAPGKERELVASISSSAGSTYYADSVKGRFTISRDNAKNTVYLQMNSLKTEDTAVYYCAKRSYNPYYRYYRYPYGYWGQGTQVTVSS | high polyreactivity
QVQLVESGGGLVQARGSLRLSCAASGRTFGPYAMGWYRQAPGKERELVAAISSSEGSTYYADSVKGRFTISRDIAKYSVYLQMNSMKPEDTAVYYCNARYYLWSTTRWYGYDYWGQGTQVTVSS | high polyreactivity
QVQLVESGGGLVQAGGSLRLSCAASGYIFLWYAMGWYRQAPGKERELVASISSGSTYYADSVKGRFTISRDNAKNTVYLLMNSLKPEDTAVYYCAAGWFASDYYYWGQGTQVTVSS | low polyreactivity
QVQLVESGGGLVQAGGSLRLSCAASGITFQDNAIGSNRQAPGKERELVAAISTGSTNYADSVKGRFTISRDNAKNTVYLQMKSLKPDDTAVYYCAALGQYQTVYSDGYDYYYWGQGTQVTVSS | low polyreactivity
QVQLVESGGGLVQAGGSLRLSCAASGSIFTYYAMGWYRPAPGKERELVAAISSDGSTTYADSVKGRFTISRDNAKNTVYLQMNSLKPEDTAVYYCAASQFYFYYSPDGYDFWGQGTQVTVSS | low polyreactivity
QVQLVESGGGLVQAGGSLRLSCAASGRIFKINAMGWYRQAPGKERELVAAITRSGGTTYYADSVMGRFTISRDHAKNTVYLQMNSLKPEDTAVYYCAARVVQYPYYYWGQGTQVTVSS | high polyreactivity
QVQLVESGGGLVQAGGSLRLSCAASGSTFLVYAMGWYRQAPGKERELVAVIRWRDGSTYYADSVKGRFTISRDNAKNTVYLQMNSLKPEDTAVYYCAAVYWGEEYEYWGQGTQVTVSS | low polyreactivity
QVQLVESGGGLVQAGGSLRISCAASGSIFGGYSMGWYRQAPGKERELVAAIRYSGVSTYYADSVKGRFTISRDNAKYTVYFQMNSLKAEDTAVYYCNAVPFYYHYDYWGQGTQVTVSS | high polyreactivity
QVQLVESGGGLVQAGGSLRLSCAASGRTFYVYDMGWYRQAPGKERELVAVISSSGSTNYADSVKGRFTISRDNAKNTVYLQMNSLKPEDTAVYYCNRRRWYFFSLDYWGQGTQVTVSS | high polyreactivity
QVQLVESGGGLVQAGGSLRLSCAASGIIFYDYAMGWYRQAPGKERELVASISWSSGSTYYADSVKGRFTISRDNAKNTVYLQMNSLKPEDTAVYYCAADGYPLQLYNYWGQGTQVTVSS | low polyreactivity
QVQLVESGGGKVQAGGSLRLSCASSGFTYDSNAMGSYRQAPGKERELVAAISTGGSTYYADSVKGPFTISRDNANITVYLQMYSLKPEDTAVYYCARDPPYPDTWYGYWGQGTQVTVSS | low polyreactivity
QVQLVESGGGLLQAGGSLRLSCAASGFIFYDYAMGWYRQAPGKERELVAAITKPGGSTYYADSEKGRFTISRDNAKNTVYLQMNSLKPEDTAGYYCAADVMYYHKLTYGYDYWGQGTQVTVSS | high polyreactivity
QVQLVESGGGLVQAGGSLRLSCAASGIIFIVNAMGWYRQAPGKERELVATISSSGDITRYADSVKGRFTISRDNAKYTVYLQMNSLKPEDTAVYYCAARLWTGYWGTAHPRYDYWGQGTQVTVSS | high polyreactivity
QVQLVESGGGLVQAGGSLRLSCAASGITFNFYAMGWYRQAPGKERELVAAITQSGGSTYYADSVKGRFTISRDNAKNTVYLQMNSLKPEDTAVYYCAAARTGHMYYWGQGTQVTVSS | high polyreactivity
QVQLVESGGGLVQAGGSLRLSCAASGRTLLKYAMGWYRQATGKEREFVAAITRSGSSTYYADSVKGRFTISRDNAKNTVYLQMNSLKPEDTAVYYCAARLYRVTLDYWGQGTQVTVSS | low polyreactivity

Sequence | polyreactivity (PSR sort gate)
QVQLVESGGGLVQAGGSLRLSCAASGSIFYWNAMGWYRQAPGKEREFVADISQSGDSTYYADSVKGRFTISRDNAKNTVYLQMNSLKPEDTAVYYCAAQFLSYAWDYDYWGQGTQVTVSS | low polyreactivity
QVQLVESGGGLVQAGGSLRLSCAASGSTFEAYAMGWYRQAPGKERELVAAITRGSTYYADSVKGRFTISRDNAKNTVYLQMNSLKPEDTAVYYCNVDYSYNSGYDYWGQGTQVTVSS | high polyreactivity
QVQLVESGGGLVQAGGSLRLSCAASGSIFVTYAMGWYRQAPGKERELVAAISTSGGSTYADSVKGRFTISRDNAKNTVYLQMNSLKPEDTAVYYCNADDPGYAVPWYWFKYDYWGQGTQVTGSS | low polyreactivity
QVQLVESGGGLVQAGGSLRLSCAASGIIFVPNAMGWSRHPPGKERELVAAITGRGVSTYYADSVKGRFTISRDTAKKTVYLQMNSLKPEDTAVYYCAATLFSYSGGTHDYWGQGTQVTVSS | high polyreactivity
QVQLVESGGGLVQAGGSLRLSFAASGRIFGWYAIGGYRKAAGTEREVVAAISTSGVRTYYADSVKGRFTISRDNAKITVYLQMKSLKPEDTAVYYCAARYIRAYSRDYWGQGTQVTVSS | high polyreactivity
QVQLVESGGGLVQAGGSLRLSCAASGRIFVPYAMGWYRQAPGKERELVAAITWRGGSTYYADSVKGRFTISRDNAKNTVYLQMNSLKPEDTAVYYCNADEASPWFWFSHLQVGMDYWGQGTQVTVSS | low polyreactivity
QVQLVESGGGLVQAGGSLRLSCAASGSIFQYYGMGWYRQAPGKERELVASISRSGGSTYYADSVKGRFTISRDNAKNTVYLQMNSLKPEDTAVYYCNKRTYRQLSSWDYTYYYWGQGTQVTVSS | low polyreactivity
QVQVVESGGGLVQAGGSHRLSCAASGSTFIRYPMGWYRQAPGKERELVAAITWSGGSTYYADSVKGRFTISRDNAKNTVYLQMNSLKPEDTAFYYCAARGPSLSNYRGRMYYWGQGTQVTVSS | high polyreactivity
QVQLVESGGGLVQAGGSLRLSCAASGFIFDYYAMGWYRQAPGKERELVAAITSRSGSTYYADSVKGRFTISRDNAKNTVYLQMNSLKPEDTAVYYCAAVYPDYSSARYDYWGQGTQVTVSS | high polyreactivity
QVHLVESGGGLVQAGGSLRLSCAASGGTINRYAMGWSRQAPGKERELVAAITYSGGRTYYADSVKGRFTISRDNAKNTVYLQMNSLKPEDTAVYYCAARVGKIISDSWGQGTQVTVSS | high polyreactivity
QVQLVESGGGLVQAGGSLRLSCAASGITIYGYAMGWYRQAPGKERELVAAITRSGGGTYYADSVKGRFTISRDNEKNTVYLQMISLKPEDTAVYYCAADSYSQYTMDYWGQGTQVTVSS | high polyreactivity
QVQLVESGGGLVQAGGSLRLSCAASGFIFVPYAMGWYRQAPGKERELVAAITWSGASTYYADSVKGRFTISRDNAKNTVYLQMNRLKPEDTAVYYCAAENWLPQTGGYYWYDYWGQGTQVTVSS | high polyreactivity
QVQLVESGGGLVQAGGSLRLSCAASGLIFVHYAMGWYRQAPGKEREFVAAITWSGGSKYYADSVKGRFTISRDNAKNTVYLQMNSLKPEDTAVYYCAVDGFRPGTASFGYWGQGTQVTVSS | low polyreactivity
QVHLVETGGGLVQAGGSLRLSCAASGSIFVSNAKGWYRQAPGKERELVAAISQSGGSTYYADSVKGRFTISRDYAKNTVYLQMNSLKPEDTAVYYCATPIRSGFRIYDYWGQGTQVTVSS | low polyreactivity
QFQLVESGGGLLQAGGSLRLSCAASGFTFSYNAKGWYRKAPGKERELVAAISSSGGSTYYADSVKGRFTISRDNAKNTVYLQMNILKPEDPSVYYCAVPYLTLYGRSYDYWGQGTQVTVSS | high polyreactivity
QVQLVESGGGLVQAGGSLRLSCAASGRILRRNTMGWYRQAPGKERELVATITRGGGNTYADSVKGRFTISRDNAKNTVYLQMNSLKPEDTAVYYCARAYGSYDYWGQGTQVTVSS | high polyreactivity
QVQLVESGGGLVQAGGSLRLSCAASGIIFEYYAMGWYIQAPGKERELVAAISSDTSTNYADSVKGRFTISRDNAKNTVYLQMNSLKPEDTAVYYCNADAYYDTYGIGVGTDYDYWGQGTQVTVSS | low polyreactivity
QVQLVESGGVLVQAGGSLRFSCAASGFFFSSNAIGWYRQAPGKERELVAAISRSVGSTYYADSVKGRFTISRDNAKNTVYLQMNSLKPEDTAVYYCAARIGSYRKYRYDYWGQGTQVTVSS | high polyreactivity
QVQLVESGGGLVQAGGSLRLSCAASGFIRGYYDMGWYRQAPGKERELVAAISSGGRTYYADSVKGRFTISRDNAKNTVYLQMNSLKPEDTAVYYFNAYAPRRRFDYWGQGTQVTVSS | high polyreactivity
QVQLVESGGGIVQAGGSLRLSCAASGRIFVRNAMVWYRQAPGKERELVAAISTNGGSTRYADSVKGRFTISRDNAKNTVYLQMNSLKPEDTAVYYCNAYYSHSPRYLKYDYWGLGTQVTVSS | high polyreactivity
QVQLVESGGGLVQAGGSLRLSCAASGSTLHLYAMGWYRQAPGKERELVADITSGGDTYYADSVKGRFTISRDNAKNTVYLQMNSLKPEDTAVYYCNAVYEGRYEYAYYYRYDYWGQGTQVTLSS | high polyreactivity
